Measurements reported in the RNAGym collection of RNA variant scans (doi:10.1073/pnas.2313332121).
Fewer inactive variants are shown than the library holds.

B1: TPR 5TU (parent)
chain: GGAUCUUCUCGAUCUAACAAAAAAGACAAAUCUGCCACAAAGCUUGAGAGCAUCUUCGGAUGCAGAGGCGGCAGCCUUCGGUGGCGCGAUAGCGCCAACGUUCUCAACUAUGACACGCAAAACGCGUGCUCCGUUGAAUGGAGUUUAUCAUG

Variants of: B1
Experiment: polymerase ribozyme fitness, log enrichment relative to wild type (log ratio); higher = more active; in vitro selection for triplet polymerase activity
Outline: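 Both subunits of a heterodimeric triplet polymerase ribozyme were given their own mutant library, built by PCR and transcribed. Each library was annealed with a biotinylated primer, the partner subunit and triplets, incubated frozen at −7 °C, and its extended constructs gel-excised, captured on streptavidin beads and amplified by RT-PCR, all in one round done in triplicate. Fitness is the logarithm of genotype enrichment relative to wild-type enrichment, with replicates averaged by inverse-variance weighting. That logarithm is base 2, and Illumina-sequenced genotypes needed ≥10 input reads and ≥1 read per output.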
With GGAUCUUCUCGAUCUAACAAAAAAGACAAAUCUGCCACAAAGCUUGAGAGCAUCUUCGGAUGCAGAGGCGGCAGCCUUCGGUGGCGCGAGAGCGCCAACGUUCUCAACUAUGACACGCAAAACGCGUGCUCCGUUGAAUGUAGUUUAUCAUG the “polymerase ribozyme fitness (log ratio)” value was at most -4.2.
With GGAUCUUCUCGCUCUAACAAAAAAGACAAAUCUGCCACAAAGCUUGAGAGCAUCUUCGGAUGCAGAGGCGGCAGCCUUCGGUGGCGCGAUAGCGCGAAUGUUCUCAACUAUGACACGCAAAACGCGUGCUCCGUUGAAUGGAGUUUAUCAUG the “polymerase ribozyme fitness (log ratio)” value was -2.39.
For GGAUCUUCUCGAUCUAACAAAAAAGACAAAUCUGCCACAAAGCUUGAGAGCAUAUUCGGAUGCAGAGGCGGCAGCCUUCGGUGGGGCGAUAGCGCCAACGUUCUCAACUAUGACACGCAAAACGCGUGCUCCGUUGAAUGGAGUUUAUCAUG, the “polymerase ribozyme fitness (log ratio)” value was -3.
In the case of GGUUCUUCUCGAUCUAACAAGAAAGACAAAUCUGCCACAAAGCUUGAGAGCAUCUUCGGAUGCAGAGGCGGCAGCGUUCGGUGGCUCGAUAGCGCCAACGUUCUCAACUAUGACACGCAAUACGCGUGCUCCGUUGAAUGGAGUUUAUCAUG, the “polymerase ribozyme fitness (log ratio)” value is reported as at most -4.2.
With GGAUCUUCUCGAUGUAACAAAAAAGACAAAUCUGCCACAAAGCUUGAGAGCAUCUUCGGAUGCAGAGGCGGCAGCCUUCGGUGGCUCGAUAGCGCCAACGUUCUCAACUAUGACACGCAAAACGCGUGCUCCGUUGAAUGGAGUUUAUCAUG the “polymerase ribozyme fitness (log ratio)” value was -3.77.
With GGAUCUUCUCGAUAUAACAAAAAAGACAAAUCUGCCACAAAGCUUGAGAGCAUUUUCGGAUGCAGAGGCGGCAGCCUUCGGUGGCGCGAUAGCGCCAACGUUCUCAACUAUGACACGUAAAACGCGUGCUCCGUUUAAUGGAGUUUAUCAUG the “polymerase ribozyme fitness (log ratio)” value was -4.12.
With GGAUCUUCUCGAUCUAACUAAAAAGACAAAUCUGCCACAAAGCUUGAGAGCAUCUUCGGAUGCAGAGGCGGCAGCCUUCGGUGGCGCGAUGGCGCCAACGUUCUCAACUAUGACACGCAAAACGCGUGCUCCGUUGAAUGGAGUUUAUCAUG the “polymerase ribozyme fitness (log ratio)” value was -2.85.
For GGUUCUUCUCGAUCUAACAAAAAAGACAAGUCUGCCACAAAGCUUGAGCGCAUCUUCGGAUGCAGAGGCGGCAGCCUUCGGUGGCGCGAUAGCGCCAACGUUCUCAACUAUGACACGCAAAACGCGUGCUCCGUUGAAUGGAGUUUAUCAUG, the “polymerase ribozyme fitness (log ratio)” value was at most -4.2.
In the case of GGAUCUUCCCGAUCUAACAAUAAAGACCAAUCUGCCACAAAGCUUGAGACCAUCUUCGGAUGCAGAGGCGGCAGCCUUCGGUGGCGCGAUAGCUCCAACGUCCUCAACUAUGACACGCAAAACGCGUGCUCCGUUGAAUGGAGUUUAUCAUG, the “polymerase ribozyme fitness (log ratio)” value is reported as -4.16.
With GGAUCUUCUCAAUCUAACAAAAAAGACAAAUCUGCCACAAAGCUACAGAGCAUCUUCGGAUGCAGAGGCGGCAGCCUUCCGUGGCGAGAUAGCGCCAACGUUCUCAACUAUGACACGCAAAACGCGUGCUCCGUUGAAUGGAGUUUAUCAUG the “polymerase ribozyme fitness (log ratio)” value was at most -4.2.
For GGAUCUUCUCGAUCUAACAAAAAAGAGAAAUCUGCCACAAAGCUUGAGGGCAUCUUCGGAUGCAGCGGCGGCAGCCUUCGGUGGCGCGAUAGCGCCAACGUUCUCAACUAUGACACGCAAAACGCGUGCUCCGUUGAAUGGAGUUUAUCAUG, the “polymerase ribozyme fitness (log ratio)” value was at most -4.2.
In the case of GGAUAUUCUCGAUCUAACAAUAAAGACAAGUCUGCCACUAAGCUUGAGAGCAUCUUCGGAUGCAGAGACGGCAGCCUUCGGUGGCGCGAUAGCGCCAACGUUCUCAACUAUGACACGCAAAACGCGUGCUCCGUUGAAUGGAGUUUAUAAUG, the “polymerase ribozyme fitness (log ratio)” value is reported as at most -4.2.
With GGAUCUUCUCGAUCUUACAAAAACGAUAAAUCUGCCACAAAGCUUGAGAGCAUCUUCGGAUGCAGAGGCGGCAGCCUUCGGUGGUGCGAUAGCGCCAACGUUCUCAACUAUGACACGCAAAACGCUUGCUCCGUUGAAUGGAGUUUAUCAUG the “polymerase ribozyme fitness (log ratio)” value was at most -4.2.
With GGAUCUUCUCGAUCUAACAAAAAAGACAAAUCUGCAACAAAGCUUGAGAGCAUCUUCGGAUGCCGAGGCGGCAGCCUUCGGUGGCCCGAUAGCGCCAACGUUCUCAACUAUGACACGCAAAACGCGUGCUCCUUUGAAUGGAGUUUAUCAUG the “polymerase ribozyme fitness (log ratio)” value was at most -4.2.
In the case of GGAUCUUCUCGAUCUAACAAAAAAGACAAAUCUGCCACAAAGCUUGUGAGCAACUUCGGAUGCAGAGGCGGCAGCCUUCGGUGGCGCGAUAGCGCCAACGUUCUCAACUAUGACACGCAAAACGCGUGCUCCCUUGAAUGGAGUUUAUCAUG, the “polymerase ribozyme fitness (log ratio)” value is reported as -2.66.
With GGAUCUUCUCGAUCUAACAAAAAAGACAAAUCUGCCACAAAGCUUGAGAGCAUCUUCGGAUGCAGAGGCGGCUGCCUUCGGUGGCGCGAUAGCGCCAACGUUCUCAACUAUGACACGCAAAACGCGUGCUCCGUUGAAUGGAGCUUAUCAUG the “polymerase ribozyme fitness (log ratio)” value was -1.49.
For GGAUCUUCUCGAUCUAACAAGAAAGACAAAUCUGCCACAAAGCUUGAGAGCAUCGUCGGAUGCAGAGGCGGCAGCCUUGGGUGGCGCGAUAGCACCAAAGUUCUCAACUAUGACACGCAAAACGCGUGCUCCGUUGAAUGGAGUUUAUCAUG, the “polymerase ribozyme fitness (log ratio)” value was at most -4.2.
In the case of GGAUAUUCUCGAUCUAACAUAAAAGACAAAUCUGCCACAAAGCUUGUGAGCAUCUUCGGAUGCAGAGGCGGCACCCUUCGGUGGCGCGAUAGCGCCAACGUUCUCAACUAUGACACACAAAACGCUUGCUCCGUUGAAUGGAGUUUAUCAUG, the “polymerase ribozyme fitness (log ratio)” value is reported as at most -4.2.
For GGAUCUUCUCGAUCUAACAAAAAAGACAAAUCUGCCACAAAGCUUGAGAGCAUCUUCGGAUGCAGAGGCGGCAGUCUUCGGUGGCGCGAUAGCGUCAACGUUCUCAACUAUGACACGCAAAACGCGUGCUCCGUUGAAUGGAGUUUAUCAUG, the “polymerase ribozyme fitness (log ratio)” value was 0.131.
